# Reference: US20130143812A1, “ANTI-INFLAMMATORY DRUG” (SEKISUI MEDICAL CO., LTD., priority 2010, published 2013)
# What was measured:
# [1] = test system: high-fat diet-fed B6 mice; test: Glucose tolerance test (GTT) in high-fat diet-fed B6 mice given recombinant adenovirus; format: in vivo; conditions: activin expressed by recombinant adenovirus, glucose 1.0 mg/g-BW into abdominal cavity
# Protocol: Adenovirus was produced in the same way as the production of recombinant adenovirus in Example 3.
# After five-week-old male B6 mice were adapted with normal diet for one week, high-fat diet was fed for twelve weeks. The recombinant adenovirus (5.0×10^11 pfu/mL) was lysed in 150 μL of PBS and administered to mice in the 18th week from the tail vein once a week for two weeks. A glucose tolerance test (GTT) was performed on seventh day after the second administration.
# The GTT was performed as follows. Into the abdominal cavities of mice fasted for 16 hours from the previous day of the test, 1.0 mg/g-BW of glucose (diluted by physiological saline) was administered. Serum was separated from collected whole blood and glucose concentration was measured by Glucose-Test Wako (manufactured by Wako Pure Chemical Industries).
# RAW264.7 cells [2] = test: Macrophage marker expression in RAW264.7 cells with activin A, activin B or SB431542 and palmitic acid; format: cell-based; conditions: 8 hours
# Protocol: (1) Induction of Macrophages by Activin Species Activin A (10 ng/mL), activin B (10 ng/mL), and SB431542 (0.1 to 1 μM) were added to RAW264.7 cells in combination as depicted in FIG. 4. Human Recombinant (R&D Systems, 338AC005) and Recombinant (R&D Systems, 659AB005) were used for activin A and activin B, respectively. After 30 minutes, palmitic acid (a proinflammatory substance) was added to the final concentration of 200 μM and, after eight hours, RNeasy Mini Kit (250) (Qiagen, Cat. Number 74106) was used for recovering the cells to extract RNA. The RNA extracted at step (1) was used for performing a reverse transcription reaction in accordance with the protocol of High Capacity cDNA Reverse Transcription Kit with RNase Inhibitor (ABI) to perform TaqMan PCR. Arginase-1 was selected as an M2 macrophage marker and IL-6 and MCP-1 were selected as M1 macrophage markers to create respective TaqMan probes. Analysis was performed in the same way as the expression analysis of macrophage markers of Example 1.
# db/db mice = test: Arginase-1 mRNA expression in visceral fat of db/db mice given recombinant adenovirus; format: in vivo; conditions: activin expressed by recombinant adenovirus via tail vein once a week for two weeks, compared to control
# Source text: (§1) Full-length mouse inhibin βA cDNA or full-length mouse inhibin βB cDNA was amplified by using pcDNA3.1/V5-HisA (Invitrogen) in accordance with the recommended method. The amplified product was subjected to HindIII and EcoRV treatments and used for production of recombinant adenovirus. The recombinant adenovirus of inhibin βA or inhibin βB was produced by using Takara Adenovirus Expression Vector Kit (Takara) in accordance with the recommended method. For negative control, β-galactosidase-gene-containing virus attached to the kit was used. The adenovirus was transfected to HEK293 cells by using CellPhect (registered trademark) Transfection Kit (GE Healthcare) with the calcium phosphate method.
# After seven-week-old male db/db mice were adapted for one week, 5.0×10^11 pfu/mL of the recombinant adenovirus was lysed in 150 μL of PBS and administered from the tail vein once a week for two weeks. Visceral fat was collected on seventh day after the second administration for performing a reverse transcription reaction in accordance with the protocol of High Capacity cDNA Reverse Transcription Kit with RNase Inhibitor (ABI) and the expression analysis of arginase-1 was performed with TaqMan PCR.
# RAW264.7 cells [3] = test: Expression of M2 and M1 macrophage markers in RAW264.7 cells cultured with activin A or activin B (TaqMan PCR); format: cell-based; conditions: 10 or 30 ng/mL added individually, 8 hours
# Protocol: Each of activin A (10 ng/mL or 30 ng/mL) and activin B (10 ng/mL or 30 ng/mL) was individually added to RAW264.7 cells. Human Recombinant (R&D Systems, 338AC005) and Recombinant (R&D Systems, 659AB005) were used for activin A and activin B, respectively. After eight hours, RNeasy Mini Kit (250) (Qiagen, Cat. Number 74106) was used for recovering the cells to extract RNA.
# The RNA extracted at step (1) was used for performing a reverse transcription reaction in accordance with the protocol of High Capacity cDNA Reverse Transcription Kit with RNase Inhibitor (ABI) to perform TagMan PCR. Arginase-1 was selected as an M2 macrophage marker and IL-6 and MCP-1 were selected as M1 macrophage markers to create respective TaqMan probes. Each of mRNA expression levels is represented by a multiple when an expression level of cyclophilin A mRNA in the same sample is defined as one (hereinafter, the same applies to the examples using TaqMan PCR unless otherwise stated).
# RAW264.7 cells [4] = test: Expression of M2 macrophage markers in RAW264.7 cells cultured with activin A and SB431542; format: cell-based; conditions: activin A 10 or 30 ng/mL, 24 hours
# Protocol: Activin A (10 ng/mL or 30 ng/mL) and SB431542 (0.1 to 1 μM, Santa Cruz Biotechnology, Inc., sc-204265) were added to RAW264.7 cells in combination as depicted in FIG. 2. Human Recombinant (R&D Systems, 338AC005) was used for activin A. After 24 hours, RNeasy Mini Kit (250) (Qiagen, Cat. Number 74106) was used for recovering the cells to extract RNA. The RNA extracted at step (1) was used for performing a reverse transcription reaction in accordance with the protocol of High Capacity cDNA Reverse Transcription Kit with RNase Inhibitor (ABI) to perform TaqMan PCR. Arginase-1, Mrc2 (mannose receptor 2), and IL-10 were selected as M2 macrophage markers to create respective TaqMan probes.
# [5] = test system: high-fat diet-fed B6 mice; test: Arginase-1 mRNA expression in visceral fat of high-fat diet-fed B6 mice given recombinant adenovirus; format: in vivo; conditions: twelve-week high-fat diet B6 mice, activin expressed by recombinant adenovirus via tail vein once a week for two weeks
# Source text: as §1
# After five-week-old male B6 mice were adapted with normal diet for one week, high-fat diet was fed for twelve weeks. The recombinant adenovirus (5.0×10^11 pfu/mL) was lysed in 150 μL of PBS and administered to mice in the 18th week from the tail vein once a week for two weeks. Visceral fat was collected on seventh day after the second administration for performing reverse transcription in accordance with the protocol of High Capacity cDNA Reverse Transcription Kit with RNase Inhibitor (ABI) and the expression analysis of arginase-1 was performed with TaqMan PCR.
# RAW264.7 cells [6] = test: Arginase-1 expression in RAW264.7 cells with activin A, Fstl3, anti-Fstl3 antibody or mouse IgG and palmitic acid; format: cell-based; conditions: activin A 10 ng/mL, under induction of inflammation by palmitic acid 200 μM
# Protocol: Fstl3 (30 ng/mL), an anti-Fstl3 antibody or mouse IgG (0.3 to 10 μg/mL), and activin A (10 ng/mL) were added to RAW264.7 cells in combination as depicted in FIG. 6. Human Recombinant (R&D Systems, 338AC005), Recombinant (R&D Systems, 659AB005), and Follistatin-like 3 Recombinant (R&D Systems, 1255F3025) were used for activin A, activin B, and Fstl3, respectively. After 30 minutes, palmitic acid (a proinflammatory substance) was added to the final concentration of 200 μM and, after eight hours, RNeasy Mini Kit (250) (Qiagen, Cat. Number 74106) was used for recovering the cells to extract RNA.
# The RNA extracted at step (1) was used for performing a reverse transcription reaction in accordance with the protocol of High Capacity cDNA Reverse Transcription Kit with RNase Inhibitor (ABI) to perform TaqMan PCR. Arginase-1 was selected as an M2 macrophage marker to create TaqMan probes.
# [7] = activin 10 ng/mL, palmitic acid 200 μM
molecule,measurement,setting,value
"activin A: Human Recombinant (R&D Systems, 338AC005); in Examples 3 and 7 expressed by inhibin βA recombinant adenovirus (protein, UniProt P08476 311-426, looked up, Inhibin beta A chain homodimer) Inhibin beta A chain: GLECDGKVNICCKKQFFVSFKDIGWNDWIIAPSGYHANYCEGECPSHIAGTSGSSLSFHSTVINHYRMRGHSPFANLKSCCVPTKLRPMSMLYYDDGQNIIKKDIQNMIVEECGCS",glucose metabolism in glucose tolerance test (GTT),[1],improved glucose metabolism
same,expression level of arginase-1,"RAW264.7 cells [2]; activin 10 ng/mL present, palmitic acid 200 μM added, compared to control",remarkably increased
same,"expression level of MCP-1, effect of activin addition",RAW264.7 cells [2]; [7],not changed
same,"expression of IL-6, effect of activin addition",RAW264.7 cells [2]; [7],slightly reduced
same,expression of arginase-1 in visceral fat,db/db mice,no difference from the control
same,expression level of IL-6 (M1 macrophage marker),RAW264.7 cells [3],not changed
same,expression level of MCP-1 (M1 macrophage marker),RAW264.7 cells [3],not changed
same,expression of arginase-1 (M2 macrophage marker),RAW264.7 cells [3]; mRNA relative to cyclophilin A,remarkably increased
same,expression of IL-10,RAW264.7 cells [4],remarkably increased
same,expression of Mrc2,RAW264.7 cells [4],remarkably increased
same,expression of arginase-1,RAW264.7 cells [4],remarkably increased
same,expression level of arginase-1 in visceral fat,[5],slightly increased
same,expression level of arginase-1,RAW264.7 cells [6],increased
